From patent US20220177524A1

Biological target: CD20 on Raji cells (CD20+) or K562-CD20 cells (UniProt P11836)
Experiment: cell-based or functional assay

Row | Substance | cytotoxicity on target cells (luciferase assay), MACS-sorted TCRαβ negative CD20 TAC-T cells | cytotoxicity on target cells (luciferase assay), MACS-sorted TCRαβ negative CD20 cTCR-T cells
1 | anti-CD20 TAC (anti-CD20 scFv (Leu-16)-(GGGGS)3-huUCHT1.Y177T-GGGGS-CD4) | 54.6% | 
2 | anti-CD20 chimeric TCR (anti-CD20 scFv (Leu-16)-(GGGGS)3-CD3epsilon) |  | 49.2%
